Where “and” joins values, the source holds several entries; their conditions need not be identical. Equal entries are not always repeated.
Conditions: Homo sapiens; pH 7.2; 25 °C; GdnHCl; CD; MOPS 10 mM; KCl 50 mM; reversible: yes; whole UniProt chain shown

B1: Protein S100-B wild type, P04271 (protein)
chain: MSELEKAMVALIDVFHQYSGREGDKHKLKKSELKELINNELSHFLEEIKEQEVVDKVMETLDNDGDGECDFQEFMAFVAMVTTACHEFFEHE
  denaturant midpoint (higher = more stable): 3.2 M and 4.6 M
  unfolding free energy: 17.3 kcal/mol
